The data set in a line: soluble fraction after stress (log2 fold change); higher = more stays soluble; pooled small domains, quantitative proteomics. The settings on record: stress: 75 degC.
“HMFERINLIGVNGTTKKRSALVRLLDGEIVKIGVGDSLNGGQVVDISPATLTYLKSGKSIMLTLPK”: the “soluble fraction (log2)” value is -1.79.

For the sequence “HMFGQRLRLARKRAGLSMQALAQRMSPPVTAQAISKYEADRMMPSSAVLVGLGKALGVSLDFLMGGQ”, the “soluble fraction (log2)” value is -2.14.

Take “HMFHFELNAAKQALEDRKTIDRAKGILMRQRGMSEDDAYKLLRTTAMSQNRKVIDVAQALVTAADLL”: the “soluble fraction (log2)” value was -0.632.

For “HMFINTVELGRAIKRRREELGLSLRDVADVTNVSASTLSRIENGTGKPDADNIARLTGWLDMPIDRVM”, the “soluble fraction (log2)” value is -0.161.

On to “HMFIRINQTQNSPRKSVQIVESKRDGHKVRTKILRHVGIAMDDVELQKLKSLAQDIIAKMTVETENASKQ”, for which the “soluble fraction (log2)” value was -0.529.

For “HMFKINQKVKLIAPLPYLKTSENMPMLRPPDLVAIDEIGEVLSLKSPETVEVRFRRGSFLIDIDKLEKVD”, the “soluble fraction (log2)” value is -1.77.

Take “HMFKYLLDTNIVIYVIKKRPIEVMGVFNQNANRMAISAITFSELQHGAEKSVRVQENLNAIEEFTTLIDI”: the “soluble fraction (log2)” value was -0.0448.

As to “HMFKYRELLDWAKNRFDDLEVSIAPKALALLVESIGTDLRLLDSEIQKLSMYKPLEMISTNDVEDLVA”, the “soluble fraction (log2)” value was -1.01.

“HMFLTDHEVSKVARKRAHAEYLSSLSWRQRTFGDHGERSKNFEAWYKEHSHLYETEKLYKELYKN”: the “soluble fraction (log2)” value was -1.03.

With “HMFLTPLEEARLVIEEIVIPKNIAVDLSPRPSALRKQQHELIAHYQLKSFSVGNERTKRLRILPKVI”, the “soluble fraction (log2)” value was found to be 0.229.

Take “HMFMLQAKRVPVSELENFKGIVAEDVVSQSRALILPRGSNLSWLSSSAMQNLSTRLALEGVESISIYL”: the “soluble fraction (log2)” value is -2.68.

As to “HMFMVAGHLSEKNGYFYAVINYNDSLGNRKTKWMSTGLTVKGNKKRAEAILAEKRRTFQPDEPV”, the “soluble fraction (log2)” value is -1.71.

In the case of “HMFNDPTMEDALVNLKGITNEVLSYLSSSKIKKLEELAEMSVPELKDIVENISDDEASALIMEARKPWF”, the “soluble fraction (log2)” value is -0.373.

As to “HMFNEFEDIPDIISAEGIDPAMREEVAANLKKYYKNPDAMLALAPLEREYYEKLVGILSEKIELKKEN”, the “soluble fraction (log2)” value stood at 0.802.

For the sequence “HMFNFPEEVRVQLAKSEQLRNLLIPMSETVRDALSGEELWFGRTIFNTTSKKIESWTNPGVWVE”, the “soluble fraction (log2)” value is -1.39.

Take “HMFNIIARQEIDEILYEYKIENSEDYKNRDPEELAEIYENIKTVQENHDLSDDDVEELLKSIFSDY”: the “soluble fraction (log2)” value was -1.25.

For the sequence “HMFNKTKVPNFIDMNYYEEIEGNSEYDKFNFADPITKNDDTKAPGTVIDQTPEKGTRIDEEKTVIQLTIA”, the “soluble fraction (log2)” value came out at 0.114.

For the sequence “HMFNRAVSDNEALQVREHFDRDATVMSLAKKYGVSTVTIQRILLGKTYRNVGGPLFDKATLKKRMGN”, the “soluble fraction (log2)” value is -1.2.

In the case of “HMFNVKAYEKAVKSYITKRKPLGEALDEEIMDELSVKFGIVDDALEDLFKQIQDAGISIVDKDGNPSPLAL”, the “soluble fraction (log2)” value is -0.792.

As to “HMFPELEPDEQLIADLLRKTNNLQINIITVRTGLPINRVTALLFQMEMKGVVRPLAGGTYHLLV”, the “soluble fraction (log2)” value was -2.14.

In the case of “HMFPELSPEEQLIVEVLSKTNDLQVNLISVKTNIDISRLTSLLFTLEMKGVIKTFAGGMYHLL”, the “soluble fraction (log2)” value is -1.19.

Regarding “HMFPSLSPEEQAVVDVLQRNNDLQINMLSVQSGLTISRLTALLFQLEMKGVIKPLAGGMYHLL”, the “soluble fraction (log2)” value was -0.711.

Turning to “HMFPTLSPEEQRIVDQLAKENDLQANVIALRTALTIPQISALLFSLEMKGMVRLYAGGTYHLI”, the “soluble fraction (log2)” value was -4.6.

As to “HMFQPEQISKLNELETLVLDFIIKSPDKVQKATIRSLATQLHVSTTTIVRMSTKLGFNGWSELKFFLKNQS”, the “soluble fraction (log2)” value was -1.93.

As to “HMFRDFSETLLRKLQAAGGFLPFTDKTDAEAIAEHFQVSKKTFKRAVGTLYKQRRILIDDEGITLIG”, the “soluble fraction (log2)” value was -1.59.

Consider “HMFRPDYYEILQVDRHASPEVITAAYRQLLSIYNSEQDGNKQMIKLIQEAYGVLGDSQDRWLYDSWLDNN”, for which the “soluble fraction (log2)” value was -1.34.

“HMFRSNAERAAHLASALPRAEAELAALQARGAATSENIYLRSSYFDALRYTEELRAAKRAQDALQGA”: the “soluble fraction (log2)” value was determined as 0.195.

On to “HMFSAASSQISSYVRSVVDKAQTYEQAYEILAKNPLGFKLDALEDELFRIIANAEILGADDDE”, for which the “soluble fraction (log2)” value was -0.976.

Take “HMFSNATISGLKAGALVRVYNISGVAVSTLTADAEGKVSVDLNNLPKGVYILSTPSKSFKVLN”: the “soluble fraction (log2)” value was -2.65.

Take “HMFSWRQHLDHFGFSDEIKKRLADAVFLNDDWNEIDRGVLTKEELLARFIENDPGIEKEIYMVMENIN”: the “soluble fraction (log2)” value was -0.835.

Consider “HMFYPIAHTLTKLNIRSGPGEQYQKLATFENNHDLVVLTQQNEWVQVRGKSDEQVIIGWVHSSFLSPT”, for which the “soluble fraction (log2)” value was -2.8.

With “HMFYQLTENQRRILSSLEQNPRVSAAHLAEEIGISSRKVENNLKKLKEIGLLQRHGSPRKGYWSINQGW”, the “soluble fraction (log2)” value was -0.938.

As to “HMGAAAQLLHAVVLRVPAEDTMKFVSETPELRRYLGAPLGPTAALVRPGQEQELAAALQAHGILVEFDE”, the “soluble fraction (log2)” value was -0.45.

As to “HMGAAITEAEAKQIALDHAGVSESETERMRVKLGRDDGVQEYEVNFYVGNREYDYDINAATGEIRSHDSE”, the “soluble fraction (log2)” value came to 0.107.

As to “HMGADPTTWPEIDAFVGRVAVTATGLFPSGQVEIDGRRFEARLAFGVAEPGARVVVRRRTDFGLLVEKETR”, the “soluble fraction (log2)” value was -2.38.

In the case of “HMGADRLVGMTAIVTATIDPNDTDRKGRVQVEGEVWSALSDGRLIITEGSKVRITEMHGTRVRVEAI”, the “soluble fraction (log2)” value was -0.685.

On to “HMGAEWTEMRVWTSTSGSKVTAEASSLTNGQVTLETKSGKRITLSIRKLVEADQKFLEAHFSK”, for which the “soluble fraction (log2)” value was -1.33.

Regarding “HMGAGLLEPEPLKIEIQETQERLQKLQKALERDTETADSKERIKRAIEAHKARISQLQGLIE”, the “soluble fraction (log2)” value is 0.219.

Consider “HMGAKVFTVPNLIGKYAIEAGIILKKEGLSEGEVKEENSDKYAAGQIIDQYPAADSPAKENDKINYVVSIG”, for which the “soluble fraction (log2)” value is -0.066.

On to “HMGANSAYMAMRDRIQQRLLAELSPGVTRSDTAEVRRVVERIFNETTAELGLPLSRLERNDIFDLVLADIL”, for which the “soluble fraction (log2)” value was -1.85.

As to “HMGAPLAVGDSVRVVVSGPRAFVYTAPNGALSGAVRNGAAFTVLELSPDNTWARIGSGEWIKVEFLATG”, the “soluble fraction (log2)” value was -0.919.

As for “HMGATYSQFLDQVDGGNVQKVTFSGDMRSGTNQISYTTRSGQSATITAPMDRDLINILRAKNVEIVQEEP”, the “soluble fraction (log2)” value was found to be 0.232.

Consider “HMGAWQQTGFFRNRENAESLAEVLRQRGFSPVVREDTRPSGTVYYAVLVPDDGTTAARLKDAGIDSYPV”, for which the “soluble fraction (log2)” value is 0.121.

On to “HMGDDYFTILGIERDATTDEIRSAYRRLSKKIHPDAQGSSALFRQVQEAYETLIDPSSRARYVAELNASQG”, for which the “soluble fraction (log2)” value was determined as 0.00161.

As for “HMGDERDRLLLARGKRIYQELIGSDRENVAAALREFEAVLAVNNRRAIHVMRQRLAELFGVYEEFLNEEFL”, the “soluble fraction (log2)” value was -4.51.

“HMGDEVAVTEILVKVGDTVEADQSLLTVEGDKASMEVPAPFAGVVKAIQVQLGDKVVTGSPIMLFEV”: the “soluble fraction (log2)” value turned out to be 0.073.

With “HMGDFNYVMPDFRGLEAHDVSSFLNRNGFLLRPTEHEVSFTQRPGLILMHYPEPGYPFSRSSPITLVVS”, the “soluble fraction (log2)” value is -0.947.

For the sequence “HMGDGMEVWVNGSPVNLTGKDSFIFVDIFDFIDFDLTASKGRLIVIKVNGEYAEYTRPLHNGDTIEIYWEE”, the “soluble fraction (log2)” value was 0.0346.

As for “HMGDGRVGVITASIAYEYAKEVFPEGTSFLKLGLTFPLPMDLIRDFASKVEKLYVIEELEPL”, the “soluble fraction (log2)” value was -0.122.

“HMGDHYTALGLSIDATPEEIRSAYFLAARRSHPDANPDAQTTEWFLRVQEAYDILSNPRRRAEYDASLP”: the “soluble fraction (log2)” value was -0.6.

Turning to “HMGDKRPIAVGDYVKLEGQDTPGQVLSISGKNATVGFGMLKTTVKLDRLRHTMAKPQTGASAGVR”, the “soluble fraction (log2)” value is -0.293.

Regarding “HMGDKVTIPNLIDMKLTDAQNQYKPQGFSIVKNGERESDKEAGTILEQDKAAGTEISGKDIRIFVVVSSGS”, the “soluble fraction (log2)” value was determined as 0.0688.

On to “HMGDLAAAGNHTLEVMGFPQHPDESYRHFVGNGIPKLIERMLPAGHDKETEQKAYDIFMEYYSAHK”, for which the “soluble fraction (log2)” value came to 0.609.

Regarding “HMGDPMAIMQLSSNTTPEYWEAYQKYHIQEYEQSNFIRYVNGISVLDDDFVDKVLITIDQHGRIFSELKS”, the “soluble fraction (log2)” value was -3.21.

For “HMGDSEMPVSEVVRLAKLDQISSIEISGTKLTIITNNLETYTSRIEENSTIIEILQRAGVDIGGLEIYPHG”, the “soluble fraction (log2)” value was -1.53.

As to “HMGDVSGFLRGVLADGPVPAKTVFSEASGAGYSRDQIQRAARKIGVERRKTGMAGGWVWELEP”, the “soluble fraction (log2)” value is -0.148.

In the case of “HMGEAYVVPNVKNKTLGEAQLALHNQKLEGLVVDSSYVKGLPDGMILDQNPAGGARVKEGRTIYLTITTS”, the “soluble fraction (log2)” value is -0.0978.

Take “HMGEDFPYVAYATDSVRLRSKPSSSGDILAVIRQGDAVLITGSDGNYKIVEYEGRKGYVISAFLSQTP”: the “soluble fraction (log2)” value was -1.15.

With “HMGEDLTIDQLAAEVDMTVRNIRAHQARGLLPPPTIKGRIGYYGPLHRRRLQQIRAMQEEGLNLAAIAKVV”, the “soluble fraction (log2)” value is -0.889.

Take “HMGEDPYQMLGLTRQASDEEVRLAWRKLMRENHPDSLASRGVPQEFVKRATEQVAQINAAWDRIKRERG”: the “soluble fraction (log2)” value is -0.25.

Take “HMGEELIEIQNLRNKERREAEAILKNLDLVPVIQEQFDDTVPINRVITTDPGPDSTVKKGTTVMIYVSKGP”: the “soluble fraction (log2)” value was 0.415.

Turning to “HMGEENLKYPLLTDGSVKTTVLEAIDKDEKWLREELAKQGYDDLSKLFLVDYLGGQLVVTPY”, the “soluble fraction (log2)” value worked out at 0.144.

For “HMGEESIAELISNPKLSDAKRTVILDLLSRGLTVDQIKPYIQSDDPYTAEQLQFELYKLFFTQI”, the “soluble fraction (log2)” value is -0.578.

Take “HMGEGRVRLAQEAANRFMTAMAGDRPGFEEAGRALFAGDRARFHAETEGWPEDIRDHARRLAEPALQ”: the “soluble fraction (log2)” value turned out to be 0.144.

Consider “HMGEIILVPDVKAQGVSDARYTLNQAGLDAVIADSSYNRNSPPGAVLEQMPAPGSKVKSGHAIYLIINTT”, for which the “soluble fraction (log2)” value came out at 0.138.

In the case of “HMGELTSILVATKQIEPGETLSSSNTQVKSWISDLIPEGAITNPESVMGRTVSSVIGVGMPVVSLHLR”, the “soluble fraction (log2)” value is 0.462.

As to “HMGELVIPPLRERTVVDAVAEAERLGFVVQVEPVASSLPEGRVLGQSPEPGTRARKSQVVVLQVSRG”, the “soluble fraction (log2)” value is -0.614.

Take “HMGEPLTVVAAAGGDRLDRWLAGQLAGRSRAEIQRWIEAGQVTLAGRSLKASYRLSAGDAIDVAIPPPE”: the “soluble fraction (log2)” value was -0.366.

Turning to “HMGEPVEIEEPITVRSLSEALGLKSSAIISHLMRQGVFATINQNLDKETAELIAAEYGIELRIK”, the “soluble fraction (log2)” value is -0.0834.

Regarding “HMGETDDDFRELEEFVEKTKFDKLGTFMYSKEEGTPAARLPEQIHGNTKKSRYNKIMSIQQKVSNEN”, the “soluble fraction (log2)” value worked out at 0.253.
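Further: 20 min heating vs room temperature control held 20 min.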
